Measured values: the supplement of paper PMC10126150
± gives the standard deviation of the averaged measurements.

Test system: ATP
Assay: switch fluorescence ratio, 500 uM ATP over buffer (Cy3 cluster intensity, sum of 5 cycles each) (fold (ratio)); higher = stronger signal-on switching upon ATP binding; sequences stand for … in TCGTCGGCAGCGTCAGATGTGTATAAGAGACAGTTTTTTTTTTTTTTTTTTTTTTTTT…TC
Details: aptamer strand: ATP DNA aptamer (quencher-CACCTGGGGGAGTATTGCGGAGGAAGG + anchor), 100 nM annealed; ATP concentration: 500 uM
Outline: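 The fluorescence ratio divides summed target-cycle Cy3 intensity by summed buffer-cycle Cy3 intensity for each cluster and is averaged per switch-domain sequence. Cy3-labelled switching-strand clusters on a modified Illumina MiSeq flow-cell were annealed to 100 nM quencher-labelled ATP aptamer, then imaged in selection buffer and again after 15 min with 500 uM ATP at 22 °C. Five such cycles were run, with NaOH stripping and re-annealing between them, and clusters outside 100-1000 RFU were excluded.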
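Note: ATP exposure 15 min at 22 °C before imaging.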

| Sequence | switch fluorescence ratio |
| --- | --- |
| TCGCGGGGTG | 1.02 ± 0.056 |
| TGTGGATTAT | 0.988 ± 0.011 |
| GACGTATCGT | 0.989 ± 0.032 |
| CGTAACTGTG | 1.07 ± 0.043 |
| AACCGGTATT | 0.9752 ± 0.0059 |
| CTAATGTGCC | 0.993 ± 0.052 |
| TTTTTTCGAA | 0.998 ± 0.032 |
| GCCTTACGTC | 1.05 ± 0.052 |
| TGTGTGCGGT | 0.997 ± 0.054 |
| ATCATGCGCT | 0.9964 ± 0.0092 |
| CTGGGGATCG | 1.02 ± 0.043 |
| TGCTACGGCG | 1.02 ± 0.019 |
| CGGGTTATAA | 1.04 ± 0.022 |
| GGTGTTAAGA | 1.01 ± 0.0043 |
| TATGTTAGGA | 1.0104 ± 0.00038 |
| GGGGGCTTGG | 0.998 ± 0.032 |
| GGCCTAAAGG | 1.005 ± 0.0082 |
| AATGGGTGGG | 1 ± 0.062 |
| TTTAAGGGA | 0.9897 ± 0.0045 |
| AGCTTTATTA | 0.9984 ± 0.0032 |
| GGGGGGACGG | 0.969 ± 0.04 |
| ACTCAATCTG | 1.0397 ± 0.00024 |
| TCATTCCACT | 1.031 ± 0.0059 |
| TTCGTGTACG | 1.02 ± 0.019 |
| TTTGGTTCCT | 1.014 ± 0.0091 |

| Sequence | switch fluorescence ratio |
| --- | --- |
| CAACTAAGTT | 0.988 ± 0.036 |
| GGGGCACGTG | 0.995 ± 0.015 |
| CATTGGGTG | 1.05 ± 0.018 |
| TTTTCGGGTA | 1.02 ± 0.0091 |
| TTAATATGTA | 0.9897 ± 0.0074 |
| AGGATAGGGG | 0.991 ± 0.026 |
| CCTAACAGGA | 1.01 ± 0.04 |
| TTTTTTGTAA | 1.01 ± 0.036 |
| CAGGCATAGG | 1.06 ± 0.033 |
| TGAGTTTCGG | 0.9869 ± 0.0098 |
| GGGGAATACA | 1.02 ± 0.017 |
| AAGTTCAAGA | 0.99 ± 0.045 |
| GAAGTCCGCG | 1.42 ± 0.077 |
| TTGGTACGGC | 0.99 ± 0.037 |
| ATTGCCCGTC | 0.992 ± 0.038 |
| TTGGGGTTCT | 1.04 ± 0.033 |
| GGGAGTGGGG | 0.989 ± 0.025 |
| TTTGTTTAAA | 0.974 ± 0.027 |
| GTTATAGTTT | 0.985 ± 0.014 |
| GGTAGGAAAA | 0.972 ± 0.076 |
| TGGGGTTGAT | 0.968 ± 0.033 |
| TAATTTGGTG | 1.043 ± 0.0083 |
| GTAGGGCGTA | 0.9635 ± 0.0073 |
| GAGGCGTTGC | 1.06 ± 0.05 |
| TATTATTGCG | 0.988 ± 0.011 |

| Sequence | switch fluorescence ratio |
| --- | --- |
| TTTATGGCTG | 0.987 ± 0.076 |
| TAAGCAGTTT | 1.038 ± 0.0027 |
| CAGGGGATTA | 1 ± 0.045 |
| CATGAGGTTA | 0.9855 ± 0.0094 |
| TTTTGAACGA | 1.01 ± 0.035 |
| ATTCGTCATA | 1.04 ± 0.075 |
| AAACTGGAG | 1.04 ± 0.053 |
| TTTTCCTAAC | 0.999 ± 0.071 |
| TATGTTGTAC | 1.052 ± 0.0086 |
| TTTCGGGGCT | 1 ± 0.052 |
| GGGGAAAAGC | 1.04 ± 0.014 |
| GCCACATTTT | 0.945 ± 0.01 |
| TTTAGGTTCT | 1.01 ± 0.026 |
| AGTTGAACCA | 1 ± 0.012 |
| AAATTTAATG | 0.961 ± 0.016 |
| TTGGCTTAGA | 1.001 ± 0.01 |
| TTGATATATT | 0.981 ± 0.017 |
| TGGTGTCAGC | 1.02 ± 0.013 |
| CCTCAAAGGG | 1.38 ± 0.18 |
| CCCTTAGGGA | 1.02 ± 0.026 |
| TAGGGAAATC | 0.983 ± 0.013 |
| TATGGGGGAT | 1.03 ± 0.093 |
| ATGTTGTCAG | 0.987 ± 0.027 |
| AGCATGGTTG | 1.01 ± 0.026 |
| AGCTGAGGCT | 0.999 ± 0.015 |

| Sequence | switch fluorescence ratio |
| --- | --- |
| TTACCGTGCC | 1.27 ± 0.059 |
| AAGGAGGCAC | 0.985 ± 0.021 |
| AGAGCGGGCT | 1.04 ± 0.036 |
| ATCGGAAGAA | 1.01 ± 0.017 |
| CAAATGATTT | 0.985 ± 0.021 |
| ACAATATGGG | 1.01 ± 0.079 |
| TTTCACCCCT | 1.09 ± 0.067 |
| GGGATAATTG | 0.978 ± 0.024 |
| TTTTACTGAT | 1.02 ± 0.026 |
| TTGATTGATA | 1 ± 0.028 |
| TGCGATTCG | 0.9931 ± 0.0076 |
| AGTTAGAGTC | 0.99925 ± 0.00026 |
| TTTATGAGGG | 1.02 ± 0.047 |
| CTGGAGCGCT | 1.22 ± 0.054 |
| CAGGAAAGCA | 0.994 ± 0.031 |
| CGGTGCCGGT | 0.9841 ± 0.0091 |
| GATCGTGAGT | 1 ± 0.015 |
| CCCTCCTTG | 1.0791 ± 6.3e-05 |
| ACTTCTAGGC | 1.02 ± 0.058 |
| TAAGGTCATA | 1.034 ± 0.0067 |
| AATCGTCTTG | 0.97 ± 0.034 |
| GAAATGCTCT | 1.01 ± 0.033 |
| CGTAATTTGA | 1.02 ± 0.047 |
| AGGCTCTTAT | 1.03 ± 0.049 |
| GGGGTCGGTA | 0.9893 ± 0.0032 |

| Sequence | switch fluorescence ratio |
| --- | --- |
| AAATAGGGGG | 0.967 ± 0.026 |
| TAGGGCCAGC | 1.04 ± 0.033 |
| GGTTAGTATT | 0.987 ± 0.021 |
| TGTTGTGACA | 0.967 ± 0.026 |
| TGCGGAGAAT | 1.028 ± 0.0026 |
| TTTTTCAGAT | 1.03 ± 0.055 |
| CATCATTGGC | 0.974 ± 0.092 |
| CGGGGGAGGC | 0.96 ± 0.018 |
| TACCCTTTTT | 1.01 ± 0.054 |
| AAGCATCTAC | 2.08 ± 0.32 |
| TTGGGGCGTT | 0.993 ± 0.057 |
| TAGTGGTTT | 0.986 ± 0.024 |
| TTTTTAGTGG | 0.981 ± 0.015 |
| TCTTGCGTGG | 0.954 ± 0.01 |
| AAGTCAGAGC | 0.97 ± 0.097 |
| GACTGGGGAT | 0.995 ± 0.025 |
| ACGTCGGGCT | 1.01 ± 0.021 |
| AGGGGGTAGT | 0.983 ± 0.011 |
| TGATGGCTGC | 1.04 ± 0.013 |
| GTATAAATGT | 0.984 ± 0.051 |
| TCGTAGGCCT | 0.981 ± 0.061 |
| TTAATTGGGC | 1.03 ± 0.069 |
| GGGGGGAAAT | 1.01 ± 0.057 |
| TGTGCGCGCT | 0.995 ± 0.036 |
| AATATCTGTT | 0.997 ± 0.019 |

| Sequence | switch fluorescence ratio |
| --- | --- |
| TGGGACGTGG | 0.9812 ± 0.0086 |
| GACATGGGTG | 1.02 ± 0.031 |
| GATTCAGGGG | 1.04 ± 0.026 |
| TTTGATCGCA | 0.999 ± 0.025 |
| CTAAGGGAGG | 0.992 ± 0.017 |
| AGTGGTTTAT | 0.985 ± 0.014 |
| TAAGGTCGGT | 0.966 ± 0.018 |
| CTTGCGGGGC | 1.03 ± 0.051 |
| AGGGAAAAGA | 1.03 ± 0.031 |
| GGGATAAGGC | 1.08 ± 0.014 |
| AAGGGCTTTA | 1.01 ± 0.023 |
| ACCGGGAGGT | 1.01 ± 0.049 |
| AGGCCACCTT | 1.04 ± 0.023 |
| GAATTGGTAA | 1.013 ± 0.0076 |
| TGACAGACAT | 1.1 ± 0.027 |
| TTGGGGGGTT | 1.03 ± 0.066 |
| ATATCAATGT | 1 ± 0.028 |
| AAGTCCTGCC | 1.26 ± 0.081 |
| GCGTCAAGAG | 1.24 ± 0.046 |
| GTAGCGGGGT | 1.006 ± 0.0054 |
| TTTGGGACCT | 1 ± 0.048 |
| TTTCGTAAAA | 1.002 ± 0.0057 |
| TAGGTAGGAG | 1 ± 0.031 |
| GTGGGTGCGG | 0.979 ± 0.051 |
| TGCTGACCGA | 1.04 ± 0.035 |

| Sequence | switch fluorescence ratio |
| --- | --- |
| CCGGTCTGGC | 1.01 ± 0.013 |
| ATATTGAGGG | 1.01 ± 0.00033 |
| TGACTAGTTT | 1.005 ± 0.0059 |
| AACGTTGGGG | 0.967 ± 0.017 |
| AGAAGTGGCG | 1.01 ± 0.03 |
| TTTCGAGCTT | 1.01 ± 0.022 |
| TGTAAAATTT | 0.988 ± 0.053 |
| GGTGCAGGTG | 1.74 ± 0.59 |
| TAACACGGGA | 1.037 ± 0.003 |
| ACGAGGCTTC | 1.294 ± 0.0082 |
| TAGCCTGGAC | 1.1 ± 0.031 |
| GTGAGCCGGG | 1.01 ± 0.014 |
| TTTTTGACC | 1.008 ± 0.0017 |
| AGTAAAAGTT | 0.989 ± 0.052 |
| TAAAGGAAAA | 1.01 ± 0.015 |
| CCAGGAATAA | 1.11 ± 0.14 |
| TTCAAAACGC | 1.03 ± 0.054 |
| GCTGCGCATT | 1.94 ± 0.028 |
| TTTTATTGGT | 0.9738 ± 0.0075 |
| TAATTGTGTG | 1 ± 0.038 |
| AAATGAACCG | 1.06 ± 0.013 |
| GATATTTTGT | 0.997 ± 0.031 |
| GAAAAGATTA | 0.997 ± 0.028 |
| TATCGGTCTT | 0.9224 ± 0.0088 |
| GCGTAATATG | 1.16 ± 0.068 |

| Sequence | switch fluorescence ratio |
| --- | --- |
| GTTTGATCAG | 0.941 ± 0.011 |
| CGAATCTTTT | 1.013 ± 0.0025 |
| GTTAGAAATG | 1.01 ± 0.011 |
| CTGATAGGAT | 1.22 ± 0.37 |
| GAAGCCGGGC | 1.04 ± 0.022 |
| AATGGAATCC | 1.02 ± 0.035 |
| AAGGGGCCTG | 0.977 ± 0.018 |
| TTTGGATGGC | 1.02 ± 0.057 |
| AGTCACAGCT | 0.982 ± 0.032 |
| TCAGAGGATC | 0.961 ± 0.017 |
| AGGGGGATTG | 0.987 ± 0.03 |
| GATTTAGCTG | 1 ± 0.035 |
| ACGAAGGGTC | 0.9941 ± 0.0098 |
| GGGAGAAAAT | 1.02 ± 0.011 |
| GGTAACTTTG | 0.989 ± 0.031 |
| GGAGGGGCGG | 1.01 ± 0.043 |
| TATTGTGCTT | 0.982 ± 0.035 |
| GGGGGAGACA | 0.997 ± 0.027 |
| TCAAAATTTA | 1.02 ± 0.048 |
| TCTTAGGGGT | 0.981 ± 0.021 |
| TACATGTCGT | 0.996 ± 0.018 |
| ATTTACTTCT | 1.04 ± 0.015 |
| CTGGTTGGGA | 0.992 ± 0.013 |
| TAAATTATGG | 0.996 ± 0.021 |
| TGGGAAAGGT | 0.994 ± 0.025 |
